From patent publication US20260167721A1 (ABLEXIS, published 2026)

B1: CD3 × CD33-BspAb85 (bispecific antibody)
chain 1: EVQLVESGGGLVKPGGSLRLSCAASGFTFSSYSMNWVRQAPGKCLEWVSSISRSSGYIFYADSVKGRFTISRDNAKNSLYLQMNSLRAEDTAVYYCVRERVGAGFDYWGQGTLVTVSSGGGGSGGGGSGGGGSGGGGSNFMLTQPHSVSESPGKTVAISCTRSSGSIASNYVQWYQQRPGSSPTAVIYEDNQRPSGVPDRFSGSIDSSSNSAFLTISGLKTEDEADYYCQSYDSSNRVFGCGTKLTVLDKTHTCPPCPAPEFEGGPSVFLFPPKPKDTLMISRTPEVTCVVVDVSHEDPEVKFNWYVDGVEVHNAKTKPREEQYNSTYRVVSVLTVLHQDWLNGKEYKCKVSNKALPASIEKTISKAKGQPREPQVYTLPPCREEMTKNQVSLWCLVKGFYPSDIAVEWESNGQPENNYKTTPPVLDSDGSFFLYSKLTVDKSRWQQGNVFSCSVMHEALHNHYTQKSLSLSPGK
chain 2: EVQLVQSGAEVKKPGSSVKVSCKASGYTITDSNIHWVRQAPGQSLEWIGYIYPYNGGTDYNQKFKNRATLTVDNPTNTAYMELSSLRSEDTAFYYCVNGNPWLAYWGQGTLVTVSSASTKGPSVFPLAPSSKSTSGGTAALGCLVKDYFPEPVTVSWNSGALTSGVHTFPAVLQSSGLYSLSSVVTVPSSSLGTQTYICNVNHKPSNTKVDKRVEPKSCDKTHTCPPCPAPEFEGGPSVFLFPPKPKDTLMISRTPEVTCVVVDVSHEDPEVKFNWYVDGVEVHNAKTKPREEQYNSTYRVVSVLTVLHQDWLNGKEYKCKVSNKALPASIEKTISKAKGQPREPQVCTLPPSREEMTKNQVSLSCAVKGFYPSDIAVEWESNGQPENNYKTTPPVLDSDGSFFLVSKLTVDKSRWQQGNVFSCSVMHEALHNRFTQKSLSLSPGK
chain 3: DIQLTQSPSTLSASVGDRVTITCRASESLDNYGIRFLTWFQQKPGKAPKLLMYAASNQGSGVPSRFSGSGSGTEFTLTISSLQPDDFATYYCQQTKEVPWSFGQGTKVEVKRTVAAPSVFIFPPSDEQLKSGTASVVCLLNNFYPREAKVQWKVDNALQSGNSQESVTEQDSKDSTYSLSSTLTLSKADYEKHKVYACEVTHQGLSSPVTKSFNRGEC
B2: CD3 × CD33-BspAb86 (bispecific antibody)
chain 1: EVQLVESGGGLVKPGGSLRLSCAASGFTFSSYSMNWVRQAPGKCLEWVSSISRSGTYIYYADSVKGRFTISRDNAKNSLYLQMNSLRAEDTAVYYCARERWELLYFDYWGQGTLVTVSSGGGGSGGGGSGGGGSGGGGSQTVVTQEPSLTVSPGGTVTLTCASSTGAVTSGYYPNWFQQKPGQAPRALIYSTSNKHSWTPARFSGSLLGGKAALTLSGVQPEDEAEYYCLLYYGGAYVFGCGTKVTVLDKTHTCPPCPAPEFEGGPSVFLFPPKPKDTLMISRTPEVTCVVVDVSHEDPEVKFNWYVDGVEVHNAKTKPREEQYNSTYRVVSVLTVLHQDWLNGKEYKCKVSNKALPASIEKTISKAKGQPREPQVYTLPPCREEMTKNQVSLWCLVKGFYPSDIAVEWESNGQPENNYKTTPPVLDSDGSFFLYSKLTVDKSRWQQGNVFSCSVMHEALHNHYTQKSLSLSPGK
chain 2: B1 chain 2
chain 3: B1 chain 3
B3: CD3 × CD33-BspAb90 (bispecific antibody)
chain 1: not shown
chain 2: B1 chain 2
chain 3: B1 chain 3
B4: CD3 × CD33-BspAb94 (bispecific antibody)
chain 1: NFMLTQPHSVSESPGKTVTISCTRSSGSIASNYVQWYQQRPGSSPTTVIYEDNQRPSGVPDRFSGSIDSSSNSASLTISGLKTEDEADYYCQSYDSSNRVFGCGTKLTVLGGGGSGGGGSGGGGSGGGGSEVQLVESGGGLVKPGGSLRLSCAASGFTFSSYTMNWVRQAPGKCLEWVSSITTSSSYIYYADSVKGRFTISRDNAKNSLYLQMNSLRAEDTAVYYCARVTFDAFDIWGQGTMVTVSSDKTHTCPPCPAPEFEGGPSVFLFPPKPKDTLMISRTPEVTCVVVDVSHEDPEVKFNWYVDGVEVHNAKTKPREEQYNSTYRVVSVLTVLHQDWLNGKEYKCKVSNKALPASIEKTISKAKGQPREPQVYTLPPCREEMTKNQVSLWCLVKGFYPSDIAVEWESNGQPENNYKTTPPVLDSDGSFFLYSKLTVDKSRWQQGNVFSCSVMHEALHNHYTQKSLSLSPGK
chain 2: B1 chain 2
chain 3: B1 chain 3
B5: CD3 × CD33-BspAb105 (bispecific antibody)
chain 1: SYELTQPPSVSVSPGQTARITCSGDALPKKYAYWYQQKSGQAPVLVIYEDSKRPSGIPERFSGSSSGTMATLTISGAQVEDEADYYCYSTDSSGNHRVFGCGTKLTVLGGGGSGGGGSGGGGSGGGGSEVQLVESGGGLVKPGGSLRLSCAASGFTFSYYSMNWVRQAPGKCLEWVSSISRSTTYIYYADSVKGRFTISRDNAKNSLYLQMNSLRAEDTAVYYCARDGKGAIFLDYWGQGTLVTVSSDKTHTCPPCPAPEFEGGPSVFLFPPKPKDTLMISRTPEVTCVVVDVSHEDPEVKFNWYVDGVEVHNAKTKPREEQYNSTYRVVSVLTVLHQDWLNGKEYKCKVSNKALPASIEKTISKAKGQPREPQVYTLPPCREEMTKNQVSLWCLVKGFYPSDIAVEWESNGQPENNYKTTPPVLDSDGSFFLYSKLTVDKSRWQQGNVFSCSVMHEALHNHYTQKSLSLSPGK
chain 2: B1 chain 2
chain 3: B1 chain 3

Each binder was assayed against T1, CD3 on human donor PBMC / Pan T effector cells (human, UniProt P07766 23-207; P09693 23-182; P04234 22-171; P20963 22-164) (assay: cell-based or functional assay).
T1 sequence (P07766 23-207, chain 1 of 4): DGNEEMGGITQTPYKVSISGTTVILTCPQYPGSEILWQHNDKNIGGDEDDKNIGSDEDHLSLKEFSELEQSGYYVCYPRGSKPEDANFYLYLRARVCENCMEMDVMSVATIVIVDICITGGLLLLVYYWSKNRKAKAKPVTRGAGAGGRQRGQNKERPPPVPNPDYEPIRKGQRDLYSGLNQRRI
T1 sequence (P09693 23-182, chain 2 of 4): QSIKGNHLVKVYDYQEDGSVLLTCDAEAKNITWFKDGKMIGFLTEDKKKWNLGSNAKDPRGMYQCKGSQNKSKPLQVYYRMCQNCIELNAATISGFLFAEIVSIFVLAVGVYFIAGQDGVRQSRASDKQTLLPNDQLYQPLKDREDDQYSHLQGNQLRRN
T1 sequence (P04234 22-171, chain 3 of 4): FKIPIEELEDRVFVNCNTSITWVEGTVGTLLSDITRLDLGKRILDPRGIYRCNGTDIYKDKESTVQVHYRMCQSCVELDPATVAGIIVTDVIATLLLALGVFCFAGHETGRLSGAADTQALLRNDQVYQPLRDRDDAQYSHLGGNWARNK
T1 sequence (P20963 22-164, chain 4 of 4): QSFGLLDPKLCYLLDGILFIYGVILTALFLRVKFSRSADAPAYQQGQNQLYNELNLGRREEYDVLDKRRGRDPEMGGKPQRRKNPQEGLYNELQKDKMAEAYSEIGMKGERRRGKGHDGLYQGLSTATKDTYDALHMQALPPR

Binder	Cytokine Release Assay (TNFα) Donor 0 EC50 [nM]	Cytokine Release Assay (TNFα) Donor 0 gMFI max [gMFI]	Cytokine Release Assay (TNFα) Donor 1 EC50 [nM]	Cytokine Release Assay (TNFα) Donor 1 gMFI max [gMFI]	Cytokine Release Assay (TNFα) Donor 2 EC50 [nM]	Cytokine Release Assay (TNFα) Donor 2 gMFI max [gMFI]	Cytokine Release Assay (TNFα) Donor 3 EC50 [nM]	Cytokine Release Assay (TNFα) Donor 3 gMFI max [gMFI]
B1	0.114	44800	0.647	5490	0.0497	18400	0.0635	26600
B2	2.15	34100		4900	2.19	10900	5.58	25200
B3	0.136	61700		5330	0.0788	16000	0.0724	32800
B4		5150		4670		4420		4110
B5		5210		4470		5500		4390

Target: T1, CD3 on human donor PBMC / Pan T …
Assay: cell-based or functional assay
Remark: another data set of the same source

Binder	Cytokine Release Assay (IL2) Donor 0 EC50 [nM]	Cytokine Release Assay (IL2) Donor 0 gMFI max [gMFI]	Cytokine Release Assay (IL2) Donor 1 EC50 [nM]	Cytokine Release Assay (IL2) Donor 1 gMFI max [gMFI]	Cytokine Release Assay (IL2) Donor 2 EC50 [nM]	Cytokine Release Assay (IL2) Donor 2 gMFI max [gMFI]	Cytokine Release Assay (IL2) Donor 3 EC50 [nM]	Cytokine Release Assay (IL2) Donor 3 gMFI max [gMFI]
B1	0.121	33000	0.442	23100	0.222	32600	0.0926	49700
B2	4.13	34400	4.24	18800	6.46	22100	3.52	42100
B3	0.0887	69600	0.0832	24300	0.0612	30000		79300
B4		13600	3.58	14800		12500	1.47	13900
B5	0.454	16900	0.232	13400		15900	0.141	18000
